Earlier results as cited in paper PMC8444577.

Molecular target: IL-18 (Homo sapiens) (UniProt Q14116)
Sequence (Q14116 37-193): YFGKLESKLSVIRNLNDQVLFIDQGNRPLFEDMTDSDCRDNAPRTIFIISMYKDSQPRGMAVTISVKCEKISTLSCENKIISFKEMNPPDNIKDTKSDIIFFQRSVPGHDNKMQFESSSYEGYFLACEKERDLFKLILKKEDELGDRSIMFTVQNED

Sequence of IL-18BP (O95998 31-194): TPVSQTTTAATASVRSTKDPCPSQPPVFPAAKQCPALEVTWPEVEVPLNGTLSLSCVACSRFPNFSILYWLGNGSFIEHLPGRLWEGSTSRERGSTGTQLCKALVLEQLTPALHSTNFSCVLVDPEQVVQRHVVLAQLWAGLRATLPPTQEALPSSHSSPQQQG

**Q.** Which Kd does the source give for IL-18BP (from UniProt O95998) here?
**A.** 0.4 nM
